# Test results published in article PMC10192418, “High-affinity peptides developed against calprotectin and their application as synthetic ligands in diagnostic assays” (Nature Communications, 2023).
# B1: linear peptide 3 [modified: 5(6)-carboxyfluorescein on the N-terminus; 5(6)-carboxyfluorescein on the N-terminus] / B-RCAL (BÜHLMANN recombinant calprotectin; His6-linker-S100A9-linker-S100A8) [human] (parent)
# chain 1: RSPESVAFPMFQSHWYSG
# chain 2: MTCKMSQLERNIETIINTFHQYSVKLGHPDTLNQGEFKELVRKDLQNFLKKENKNEKVIEHIMEDLDTNADKQLSFEEFIMLMARLTWASHEKMHEGDEGPGHHHKPGLGEGTPLEVLFQGPMLTELEKALNSIIDVYHKYSLIKGNFHAVYRDDLKKLLETECPQYIRKKGADVWFKELDINTDGAVNFQEFLILVIKMGVAAHKKSHEESHKE
# Variants of: B1
# Experiment: fluorescence polarisation
# Settings: with B-RCAL (BÜHLMANN recombinant calprotectin; His6-linker-S100A9-linker-S100A8) [human]; one measurement
row,Variant,Kd
1,chain 1 ASPESVAFPMFQSHWYSG,32 nM
2,chain 1 RSPESVGFPMFQSHWYSG,29 nM
3,chain 1 RSPESVAFPMFASHWYSG,27 nM
4,chain 1 RSPESAAFPMFQSHWYSG,39 nM
5,chain 1 RSAESVAFPMFQSHWYSG,28 nM
